Assay results as given in patent US20250250355A1 (BIOSION, published 2025).
Like-named read-outs stand apart in the source and are kept apart here.

Experiments:
[1] = molecular target: T1, full length human SIRPα on cell membranes (HEK293-SIRPα cells; 293F-SIRPα cells) (human, UniProt P78324 31-504); test: cell based binding FACS on HEK293-SIRPα cells, MFI
T1 construct: whole, on cells; also called cell surface human SIRPα; cell surface SIRPα

[2] = molecular target: T2, full length human SIRPβ on cell membranes (HEK293-SIRPβ cells; 293F cells expressing human SIRPβ) (human, UniProt O00241 30-398); test: cell based binding FACS on HEK293-SIRPβ cells, MFI
T2 construct: whole, on cells; also called cell surface human SIRPβ

[3] = molecular target: T3, human SIRPα-V8-his protein (human, UniProt P78324 31-370, limits assumed); test: indirect ELISA on coated human SIRPα-V8-his, OD(450-630); curve not visible in the scan
[4] = molecular target: T4, cynomolgus SIRPα-his protein (cynomolgus); test: indirect ELISA on coated cynomolgus SIRPα-his, OD(450-630); curve not visible in the scan
T4 construct: also called Cyno SIRPα-his; monkey SIRPα
T4 chain: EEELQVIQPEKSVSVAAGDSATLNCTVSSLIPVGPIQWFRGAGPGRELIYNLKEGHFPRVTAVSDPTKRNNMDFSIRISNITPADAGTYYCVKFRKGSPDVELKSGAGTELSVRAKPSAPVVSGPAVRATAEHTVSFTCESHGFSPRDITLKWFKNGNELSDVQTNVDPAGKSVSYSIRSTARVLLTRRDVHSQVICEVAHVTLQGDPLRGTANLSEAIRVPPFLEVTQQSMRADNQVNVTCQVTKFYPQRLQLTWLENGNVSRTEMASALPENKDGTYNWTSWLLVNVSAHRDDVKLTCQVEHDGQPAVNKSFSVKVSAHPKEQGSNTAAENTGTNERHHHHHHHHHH

[5] = molecular target: T4, cynomolgus SIRPα-his protein; test: as above
[6] = molecular target: human SIRPα-isoform 2-his protein (human); test: indirect ELISA on coated human SIRPα-isoform 2-his, OD(450-630); curve not visible in the scan
[7] = molecular target: human SIRPα-isoform 2-his protein (human); test: as above; remark: listed apart in the source
[8] = molecular target: T1, full length human SIRPα on cell …; test: cell based binding FACS on 293F cells expressing human SIRPα, MFI; curve not visible in the scan
[9] = molecular target: T1, full length human SIRPα on cell …; test: as above; remark: listed apart in the source
[10] = molecular target: T2, full length human SIRPβ on cell …; test: cell based binding FACS on 293F cells expressing human SIRPβ, MFI; curve not visible in the scan
[11] = molecular target: T2, full length human SIRPβ on cell …; test: as above; remark: listed apart in the source
[12] = molecular target: T1, full length human SIRPα on cell …; test: cell based blocking FACS on 293F-SIRPα cells; blocked ligand: biotin-labeled human CD47-Fc, MFI
human SIRPα-his protein [13] = molecular target: T5, human SIRPα-his protein (human, UniProt P78324 31-370); test: SPR (Biacore T200); antibody captured on Protein A chip, human SIRPα-his flowed from 200 nM; 1:1 Langmuir fit
human SIRPβ-his protein = human SIRPβ-his protein (human, UniProt O00241 30-371); test: SPR (Biacore T200); antibody captured on Protein A chip, human SIRPβ-his flowed from 200 nM; 1:1 Langmuir fit
[14] = molecular target: T3, human SIRPα-V8-his protein; test: indirect ELISA on coated human SIRPα-V8-his, OD(450-630); curve flat at the baseline (see non_binding)
[15] = molecular target: human SIRPα-isoform 2-his protein (human); test: indirect ELISA on coated human SIRPα-isoform 2-his, OD(450-630); curve flat at the baseline (see non_binding)
[16] = molecular target: T1, full length human SIRPα on cell …; test: cell based blocking FACS on 293F-SIRPα cells; blocked ligand: human CD47 protein (CD47-Fc), MFI; curve not visible in the scan
[17] = molecular target: T1, full length human SIRPα on cell …; test: as above; remark: listed apart in the source
human SIRPα-his protein [18] = molecular target: T5, human SIRPα-his protein; test: competitive ELISA on coated human SIRPα-his; blocked ligand: biotin-labeled human CD47-his, OD(450-630); curve not assignable in the scan
[19] = molecular target: T6, recombinant human SIRPα-Fc protein (human, biotin-labeled (sites not given)); test: capture ELISA, antibody captured on anti-mouse IgG F(ab')2, biotin-labeled human SIRPα-Fc in solution, OD(450-630); curve not visible in the scan
T6 construct: also called biotin-labeled human SIRPα-Fc protein

[20] = molecular target: T7, human SIRPα protein (soluble, used on 293F-CD47 cells) (human, UniProt P78324 31-370, limits assumed); test: cell based blocking FACS on 293F-CD47 cells; soluble human SIRPα protein blocked from binding cell surface human CD47, MFI; curve not visible in the scan
[21] = molecular target: T7, human SIRPα protein (soluble, used on …); test: as above; remark: listed apart in the source

T2 sequence (O00241 30-398): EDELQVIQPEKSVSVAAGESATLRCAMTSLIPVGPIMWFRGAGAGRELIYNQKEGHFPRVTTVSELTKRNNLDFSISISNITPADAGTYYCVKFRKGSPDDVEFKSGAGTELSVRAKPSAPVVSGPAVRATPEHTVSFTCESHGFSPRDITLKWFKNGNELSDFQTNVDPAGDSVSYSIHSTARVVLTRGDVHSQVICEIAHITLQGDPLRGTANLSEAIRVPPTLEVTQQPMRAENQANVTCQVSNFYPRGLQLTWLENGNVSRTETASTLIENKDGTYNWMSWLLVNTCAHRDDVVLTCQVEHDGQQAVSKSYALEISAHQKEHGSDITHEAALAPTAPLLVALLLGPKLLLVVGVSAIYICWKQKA
T5 sequence (P78324 other isoform, or with tags, fused parts or gaps limits assumed): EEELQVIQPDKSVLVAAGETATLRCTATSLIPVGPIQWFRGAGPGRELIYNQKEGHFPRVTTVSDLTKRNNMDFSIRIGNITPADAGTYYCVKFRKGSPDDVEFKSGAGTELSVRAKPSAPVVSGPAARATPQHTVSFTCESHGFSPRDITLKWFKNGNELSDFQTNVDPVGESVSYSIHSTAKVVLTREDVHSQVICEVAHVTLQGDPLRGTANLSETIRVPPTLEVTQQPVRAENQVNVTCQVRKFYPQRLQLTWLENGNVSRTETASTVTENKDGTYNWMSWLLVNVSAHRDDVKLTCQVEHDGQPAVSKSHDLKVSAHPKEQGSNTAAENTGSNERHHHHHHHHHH
Sequence of human SIRPα-isoform 2-his protein (human) (chain, as listed by the source limits assumed): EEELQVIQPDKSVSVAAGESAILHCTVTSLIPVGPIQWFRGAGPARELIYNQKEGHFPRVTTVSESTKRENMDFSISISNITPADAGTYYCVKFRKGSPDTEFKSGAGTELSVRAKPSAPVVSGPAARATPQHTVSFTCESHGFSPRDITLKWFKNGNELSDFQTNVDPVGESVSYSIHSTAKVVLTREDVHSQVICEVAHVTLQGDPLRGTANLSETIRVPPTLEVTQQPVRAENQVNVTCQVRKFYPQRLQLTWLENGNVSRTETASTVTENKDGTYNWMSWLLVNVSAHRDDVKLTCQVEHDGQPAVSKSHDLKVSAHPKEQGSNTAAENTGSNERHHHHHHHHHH
T1 sequence (P78324 31-504): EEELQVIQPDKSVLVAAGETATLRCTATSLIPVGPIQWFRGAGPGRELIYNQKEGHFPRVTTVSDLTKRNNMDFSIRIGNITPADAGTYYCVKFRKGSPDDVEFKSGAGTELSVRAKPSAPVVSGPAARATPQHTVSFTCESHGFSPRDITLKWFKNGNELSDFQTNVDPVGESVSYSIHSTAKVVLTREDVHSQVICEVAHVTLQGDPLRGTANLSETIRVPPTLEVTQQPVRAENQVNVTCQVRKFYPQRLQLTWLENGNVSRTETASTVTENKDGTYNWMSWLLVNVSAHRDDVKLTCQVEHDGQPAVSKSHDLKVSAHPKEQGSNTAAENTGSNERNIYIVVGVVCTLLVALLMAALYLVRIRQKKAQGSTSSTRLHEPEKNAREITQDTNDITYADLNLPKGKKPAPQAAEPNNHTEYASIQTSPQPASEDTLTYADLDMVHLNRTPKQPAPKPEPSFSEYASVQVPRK
Sequence of human SIRPβ-his protein (O00241 other isoform, or with tags, fused parts or gaps limits assumed): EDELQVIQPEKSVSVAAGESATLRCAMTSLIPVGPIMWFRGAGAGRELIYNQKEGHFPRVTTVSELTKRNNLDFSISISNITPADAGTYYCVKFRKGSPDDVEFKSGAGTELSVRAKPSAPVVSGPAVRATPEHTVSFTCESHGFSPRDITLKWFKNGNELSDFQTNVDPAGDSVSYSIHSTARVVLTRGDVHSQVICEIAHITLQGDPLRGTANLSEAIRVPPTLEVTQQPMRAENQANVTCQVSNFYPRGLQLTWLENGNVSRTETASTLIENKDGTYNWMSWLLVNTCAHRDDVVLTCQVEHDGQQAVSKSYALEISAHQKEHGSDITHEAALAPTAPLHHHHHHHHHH
T3 sequence (P78324 other isoform, or with tags, fused parts or gaps limits assumed): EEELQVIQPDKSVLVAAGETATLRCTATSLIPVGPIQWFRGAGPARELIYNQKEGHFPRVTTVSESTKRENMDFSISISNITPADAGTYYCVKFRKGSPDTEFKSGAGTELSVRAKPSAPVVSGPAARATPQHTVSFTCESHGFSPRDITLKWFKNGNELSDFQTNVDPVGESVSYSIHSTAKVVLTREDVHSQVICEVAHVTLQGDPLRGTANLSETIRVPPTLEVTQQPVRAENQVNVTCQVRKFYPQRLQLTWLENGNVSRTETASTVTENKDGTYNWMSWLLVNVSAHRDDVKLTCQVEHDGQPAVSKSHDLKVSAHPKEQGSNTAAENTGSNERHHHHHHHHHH
T7 sequence (P78324 31-370 limits assumed): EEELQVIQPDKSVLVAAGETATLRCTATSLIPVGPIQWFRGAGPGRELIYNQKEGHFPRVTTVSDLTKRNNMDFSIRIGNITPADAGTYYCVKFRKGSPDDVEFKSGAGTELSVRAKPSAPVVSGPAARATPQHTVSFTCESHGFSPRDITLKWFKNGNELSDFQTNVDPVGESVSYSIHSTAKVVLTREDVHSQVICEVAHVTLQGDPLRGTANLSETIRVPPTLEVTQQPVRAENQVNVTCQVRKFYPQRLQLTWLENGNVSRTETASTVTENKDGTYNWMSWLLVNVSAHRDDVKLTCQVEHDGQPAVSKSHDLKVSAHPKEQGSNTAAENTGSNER
T6 sequence (chain, as listed by the source limits assumed): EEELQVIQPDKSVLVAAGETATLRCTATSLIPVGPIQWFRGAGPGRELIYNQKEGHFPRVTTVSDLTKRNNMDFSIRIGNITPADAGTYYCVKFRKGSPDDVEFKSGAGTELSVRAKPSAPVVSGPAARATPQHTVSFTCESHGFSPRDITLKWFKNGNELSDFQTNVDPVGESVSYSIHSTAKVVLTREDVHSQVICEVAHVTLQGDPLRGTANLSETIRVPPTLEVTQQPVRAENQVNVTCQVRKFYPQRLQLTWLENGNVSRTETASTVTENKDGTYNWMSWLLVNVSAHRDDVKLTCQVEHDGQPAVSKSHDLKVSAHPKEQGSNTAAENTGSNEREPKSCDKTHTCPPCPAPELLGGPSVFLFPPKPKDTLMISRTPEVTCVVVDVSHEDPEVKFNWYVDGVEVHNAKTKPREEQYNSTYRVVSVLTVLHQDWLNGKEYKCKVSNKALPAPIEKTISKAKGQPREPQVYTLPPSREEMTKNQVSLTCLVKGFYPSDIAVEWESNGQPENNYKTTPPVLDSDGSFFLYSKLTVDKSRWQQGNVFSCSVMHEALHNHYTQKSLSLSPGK

- EC50 [1]: 0.633 nM
- EC50 [2]: 0.509 nM
- EC50 [3]: ~167 nM
- EC50 [4]: ~7840 nM
- EC50 [5]: ~16.6 nM
- EC50 [6]: 15.2 nM
- EC50 [7]: ~4000 nM
- EC50 [8]: 0.585 nM
- EC50 [9]: 0.545 nM
- EC50 [10]: 0.482 nM
- EC50 [11]: 0.46 nM
- IC50 [12]: 0.338 nM
- Kd (human SIRPα-his protein [13]): 26.7 nM
- koff (human SIRPα-his protein [13]): 0.00775 s⁻¹
- kon (human SIRPα-his protein [13]): 290000 M⁻¹ s⁻¹
- Kd (human SIRPβ-his protein): 30.5 nM
- koff (human SIRPβ-his protein): 0.00928 s⁻¹
- kon (human SIRPβ-his protein): 304000 M⁻¹ s⁻¹
- EC50 [14]: 12.2 nM
- EC50 [15]: ~11 nM
- IC50 [16]: 1.9 nM
- IC50 [17]: 1.83 nM
- IC50 (human SIRPα-his protein [18]): 3.92 nM
- EC50 [19]: 0.249 nM
- IC50 [20]: 0.361 nM
- IC50 [21]: 0.386 nM
B1: BI-765063 (antibody, human IgG4 S228P, kappa, V domains shown)
VH: EVQLVQSGAEVKKPGESLRISCKASGYSFTSYWVHWVRQMPGKGLEWMGNIDPSDSDTHYSPSFQGHVTLSVDKSISTAYLQLSSLKASDTAMYYCVRGGTGTLAYFAYWGQGTLVTVSS
VL: DVVMTQSPLSLPVTLGQPASISCRSSQSLVHSYGNTYLYWFQQRPGQSPRLLIYRVSNRFSGVPDRFSGSGSGTDFTLKISRVEAEDVGVYYCFQGTHVPYTFGGGTKVEIKR
notes: also called BM5
